Experimental data: ChEMBL document CHEMBL2396531, “Hybrid molecule from O2-(2,4-dinitrophenyl)diazeniumdiolate and oleanolic acid: a glutathione S-transferase π-activated nitric oxide prodrug with selective anti-human hepatocellular carcinoma activity and improved stability” (J Med Chem, 2013)

Substrate: [H][C@]12CC=C3[C@]4([H])CC(C)(C)CC[C@]4(C(=O)O[C@@H]4O[C@H](CO)[C@H](O)[C@H](O)[C@H]4O)CC[C@@]3(C)[C@]1(C)CC[C@@]1([H])C(C)(C)[C@@H](OC(=O)CN3CCN(c4cc(O/N=[N+](/[O-])N(C)CCO)c([N+](=O)[O-])cc4[N+](=O)[O-])CC3)CC[C@]21C
Assay: Activity at GSTpi (unknown origin) by Michaelis-Menten equation
Assay type: ADME, Homo sapiens

B1: Glutathione S-transferase P (Homo sapiens) (protein)
chain: MPPYTVVYFPVRGRCAALRMLLADQGQSWKEEVVTVETWQEGSLKASCLYGQLPKFQDGDLTLYQSNTILRHLGRTLGLYGKDQQEAALVDMVNDGVEDLRCKYISLIYTNYEAGKDDYVKALPGQLKPFETLLSQNQGGKTFIVGDQISFADYNLLDLLLIHEVLAPGCLDAFPLLSAYVGRLSARPKLKAFLASPEYVNLPINGNGKQ
Km: 342 µM | Vmax: 15.1 µmol/min | kcat: 6.95 s⁻¹ | kcat/Km: 20100 M⁻¹ s⁻¹
